# Molecular target: G3BP1 NTF2-like domain (human) (UniProt Q13283)
# Test: fluorescence polarisation
# Chain of G3BP1 NTF2-like domain (human) (Q13283 1-139): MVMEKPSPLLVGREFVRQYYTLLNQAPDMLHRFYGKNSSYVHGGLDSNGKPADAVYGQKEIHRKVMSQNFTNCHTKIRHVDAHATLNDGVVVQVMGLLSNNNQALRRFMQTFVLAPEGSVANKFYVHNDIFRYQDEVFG
substance,measurement,value
SARS-CoV-2 N wt peptide 12-26 (peptide; other documents disagree on this pair),IC50,8.7 µM

# From publication PMC12102759
